Assays:
CD51 = test: Co-immunoprecipitation of TFPI2 and CD51 in microglia; type: binding, human and mouse; conditions: SIM-A9 and HMC3 microglia treated with 20 ng/ml TFPI2 recombinant protein for 1 hr; anti-CD51 or anti-TFPI2 antibody
Experimental: Co-IP was performed using Invitrogen™ Dynabeads™ Protein G Immunoprecipitation Kit (Thermo Fisher Scientific, #10007D). Briefly, human or mouse microglia were treated with 20 ng/ml TFPI2 recombinant protein for 1 hr. RIPA lysis buffer was then used to extract protein after washing with PBS. Magnetic beads (1.5 mg) were separated from the solution using a magnetic stand. […] TFPI2 antibody (Abcam, #ab186747), CD51 antibody (Cell Signaling Technology, #4711S), or rabbit IgG (isotype control, Cell Signaling Technology, #2729) was prepared in […] of antibody binding and washing Buffer. Antibody or IgG was incubated with magnetic beads for 10 min at room temperature with rotation. After removing the supernatant, antibody/IgG-conjugated magnetic beads were incubated with cell lysis buffer for 2 hrs at room temperature with rotation to immunoprecipitate TFPI2- or CD51-interacting antigens. The magnetic bead-antibody-antigen complex was washed three times using […] washing buffer and then eluted with the elution buffer. The complex was loaded into 4-12% SurePAGE gels to evaluate target protein expression after Co-IP.

HMC3 microglia = test: Human phospho-kinase antibody array; type: cell-based; conditions: 20 ng/ml TFPI2 recombinant protein
Experimental: After starvation for 24 hrs followed by TFPI2 recombinant protein treatment for 1 hr, HMC3 cell lysate was prepared using a lysis buffer with […]. Phosphorylation profiles of kinases were determined using Proteome Profiler Human Phospho-Kinase Array Kit (Bio-Techne, #ARY003C) as the instruction manual. Signal was detected under ChemiDoc Touch Imaging System (Bio-Rad).

- kinases STAT6 and AKT in phospho-kinase array (HMC3 microglia): activated
B1: TFPI2 recombinant protein (tissue factor pathway inhibitor 2; BioVision, #7481-10) (ligand, UniProt P48307 23-235, looked up)
chain: DAAQEPTGNNAEICLLPLDYGPCRALLLRYYYDRYTQSCRQFLYGGCEGNANNFYTWEACDDACWRIEKVPKVCRLQVSVDDQCEGSTEKYFFNLSSMTCEKFFSGGCHRNRIENRFPDEATCMGFCAPKKIPSFCYSPKDEGLCSANVTRYYFNPRYRTCDAFTYTGCGGNDNNFVSREDCKRACAKALKKKKKMPKLRFASRIRKIRKKQF
notes: Bought recombinant protein added to microglia at 20 ng/ml; also called recombinant TFPI2; secreted TFPI2
- interaction between CD51 and TFPI2 (CD51): confirmed
